Laboratory results taken from patent US20230322857A1, “RECOMBINANTLY ENGINEERED POLYPEPTIDES CAPABLE OF RECYCLING NONCANONICAL COFACTORS” (The Regents of the University of California, priority 2022, published 2023).

Assays:
E. coli SHuffle strain [1] = assay: GDH-Gor coupled growth rescue in SHuffle strain; type: cell-based, Escherichia coli; conditions: 0.5 mM diamide, NMN^+ 0, 2, 4 and 6 mM
Method: Culture conditions for GDH-Gor coupled growth rescue in SHuffle strain. The electro-competent cells of SHuffle harboring pLZ311 or pLZ312 were made as follows: The SHuffle cells were cultured in 200 mL SOB media with spectinomycin at 30° C. with shaking until OD600 reached 0.4-0.6. The culture was chilled on ice for 15 min and the cells were pelleted at 4° C., 4,000×g. Collected cells were washed with 10% glycerol in water (sterile, ice cold) and resuspended with 5 mL of 10% glycerol in water (sterile, ice cold), and stored as 50 μL aliquots at −80° C.
Glucose facilitator (encoded by glf) was used for uptake of unphosphorylated glucose into the cells. The co-transformation of Bs gdh and Zm glf was performed as follows: Thaw SHuffle/pLZ311 or SHuffle/pLZ312 electro-competent cells on ice, add 1 μL Bs gdh (pEK101 or pLZ210) and 1 μL Zm glf(pSM109) plasmid DNA to 50 μL competent cells, mix, and electroporate. Cells were recovered with 1 mL SOC at 37° C. with shaking for 1 h. The cells were added to 10 mL 2×YT with 10 g/L glucose, 0.5% arabinose, kanamycin, chloramphenicol, and ampicillin. After incubation at 37° C. with shaking for 10 h, 1 mL cells were washed 3 times and re-suspended in M9 buffer (1×BD Difco M9 Salts). Targeted dilutions after cells reached density of OD600 0.6 were prepared in M9 buffer and 5 μL aliquots were dispensed in series on an agar plate of M9 selection media containing 0.5 mM diamide, 1 g/L yeast extract, 10 g/L glucose, 0.5% arabinose, 0.5 mM IPTG, ampicillin, kanamycin, chloramphenicol and serial NMN concentrations of 0, 2, 4 and 6 mM. Selection plates were incubated at 37° C., and photos were taken to document growth progress.

E. coli SHuffle strain [2] = assay: Recapitulation of growth restoration with TS-PTDH variants in SHuffle strain; type: cell-based, Escherichia coli; conditions: spotted onto agar selection plates
Method: Selection of TS-PTDH Library. A total of 50 μL pre-made SHuffle/pLZ311 or SHuffle/pLZ312 electro-competent cells were transformed with 2 μL TS-PTDH A155N-E175-A176-L208 NNK library DNA (pLZ316) via electroporation as described above. After rescue in SOC media for 1 h, cultures were combined in 10 mL 2×YT with 10 g/L glucose, 0.5% arabinose, kanamycin and ampicillin. 0.2, or 1 μL of culture was immediately taken from the culture and plated on an 2×YT agar plates with kanamycin and ampicillin. The plate was incubated at 37° C. overnight, and the number of colonies formed was counted to estimate the library size. The liquid cultures were incubated at 37° C. with shaking for 10 h. Cells (1 mL) were washed 3 times and re-suspended in M9 Buffer. Targeted serial dilutions of cells were prepared in M9 buffer and 5 μL aliquots were dispensed in series on an agar plate of M9 selection media containing 0.5 mM diamide, 5 or 1 g/L yeast extract, 10 g/L glucose, 0.5% arabinose, 0.5 mM IPTG, 10 g/L sodium phosphite, kanamycin, ampicillin, and 5 mM NMN^+. Selection plates were incubated at 37° C., and photographs were taken to document growth progress. The independent transformants sampled was calculated as 2.4×10^6 and 2.5×10^6 colonies when plated on 5 and 1 g/L yeast extract, respectively. TS-PTDH and the template of the library, TS-PTDH A155N, were cultured in the same conditions as controls. The colonies were numbered by the order of appearance. The selected cells were re-streaked on fresh agar plate with identical media and incubated until single colonies formed on the plate. Variants that cannot forma single colony may be false positives. After extracting the plasmids from each re-streaked colony, the chosen TS-PTDH variants were amplified and moved into the pQElac vector containing a N-terminal 6×His tag for protein purification and characterization. […] 2 μL of a serial dilution of cells were deposited onto a growth selection plate and grown at 37° C.

[3] = Steady-state kinetics of TS-PTDH variants with NAD^+; type: biochemical; conditions: 100 mM MOPS, pH 7.25, 10 mM sodium phosphite, varied cofactor concentrations; n = 3
Method: (§1) Purification and Characterization of TS-PTDH Variants. The E. coli BL21(DE3) strains harboring pQElac plasmids encoding the TS-PTDH or TS-PTDH variants were grown in 2×YT media with kanamycin and ampicillin at 37° C. The IPTG-inducible expression, Ni-affinity purification, and protein concentration determination was conducted as described above.
(§2) The steady-state kinetic parameters toward the coenzymes were measured by spiking purified protein into a 100 μL reaction mixture containing 100 mM MOPS, pH 7.25, 10 mM sodium Pt, and varied cofactor concentrations from 0.02 mM to 5 mM at 25° C. The kinetic parameters were measured by monitoring the […] of reduced coenzyme at 340 nm. Data were fitted to the Michaelis-Menten equation to generate estimates of KM and kcat values.

[4] = Steady-state kinetics of TS-PTDH variants with NMN^+; type: biochemical
Method: as §1, §2

[5] = Steady-state kinetics of TS-PTDH variants with NADP^+; type: biochemical; conditions: 100 mM MOPS, pH 7.25, 10 mM sodium phosphite, varied cofactor concentrations; n = 3
Method: as §1, §2

[6] = BNA(H)-mediated PTDH biotransformation with TsOYE; type: biochemical
Method: BNA(H)-Mediated PTDH Biotransformation. Reactions with BNA^+, see FIG. 10D, contained 100 mM MOPS-NaOH at pH 7.6, 10 mM KIP, 100 mM sodium phosphite, and 2% v/v DMSO. BNA^+Cl^−, prepared by refluxing equimolar amounts of nicotinamide and benzyl chloride in acetonitrile overnight, followed by precipitation with diethyl ether on ice was supplied to the reactions at final concentrations of 0, 5, 10, or 20 mM. Reactions were initiated by spiking TsOYE and the appropriate TS-PTDH variant to a final concentration of 10 μM, each. Reaction mixtures were incubated at 30° C. on a Thermomixer C (Eppendorf) with shaking at 900 rpm for 24 h, extracted with 500 μL ethyl acetate containing 5 mM n-dodecane, and analyzed by GC-FID. The cycling system with no BNA was used to determine the background activity of the cycling systems. This value was subtracted from the final levodione concentrations in the 5-, 10-, and 20-mM samples to determine the BNA(H)^− specific levodione production. Concentrations of levodione product were determined using a calibration line (0-10 mM, 6 levels, using n-dodecane as internal standard). The y-intercept of the calibration line was forced through 0.
For BNA(H)-mediated reactions, gas chromatography analyses were performed on a GC-2010 (Shimadzu, Japan) equipped with an AOC-20i auto injector and a flame ionization detector (FID), using a CP-Sil 5 column (25 m×0.25 mm×[…]). 1 μL of sample was injected with a split ratio of 100:1 and injector at 340° C. The FID was maintained at 360° C. Nitrogen was used as the carrier gas, with a linear velocity of 30 cm/s. The oven was held at 135° C. for 1 min, ramped at 15° C./min to 215° C., then 30° C./min to 345° C., and held at 345° C. for 1 min.
Expression and Purification of Proteins for BNA(H)-Mediated Biotransformation Reactions. E. coli BL21(DE3) strains were transformed with the plasmids containing the TS-PTDH variants and grown on LB-agar plates containing ampicillin at 37° C. overnight. An overnight culture, 15 mL LB supplemented with ampicillin, was inoculated with a single colony, and grown at 37° C., 170 rpm overnight. 2 L baffled shake-flasks with 250 mL of 2×YT media containing 200 μg/mL ampicillin, were inoculated with the overnight culture, grown at 37° C., 170 rpm until OD600 of ˜1.0, induced with IPTG (0.5 mM), and grown at 30° C. and 170 rpm for 24 h. Cells were harvested by centrifugation at 18,000×g, 4° C., 10 min and stored at −20° C. until purification.
The pellet was resuspended in four volumes loading buffer (50 mM sodium phosphate, 300 mM sodium chloride, 10 mM imidazole, pH 7.7), and lysed on ice by sonication (Branson sonifier 250; 15 min total, 40% duty cycle, output control 3.5, 2 mm tip). The lysate was clarified (21,000×g, 4° C., 30 min followed by 0.2 μm filtration), and loaded (1 mL/min) onto a Nickel-HisTrap FF crude (1 mL) column, washed with loading buffer (12 column volumes, CV), followed by a step with 10% elution buffer (loading buffer containing 250 mM imidazole; 12 CV). The protein was then eluted with 100% elution buffer and collected in fractions of 0.5 mL. Fractions containing protein were combined and dialyzed against ice-cold dialysis buffer (50 mM sodium phosphate, pH 7.7, 800 mL); the buffer was renewed after the first 2 h of dialysis. Following the dialysis, the protein was mixed with glycerol (20% v/v final concentration). Enzyme concentrations were estimated by the absorbance at 280 nm (non-denatured protein), using predicted extinction coefficients (wild type and LY-13: 26470, LY-7: […]; web.expasy.org/protparam/). The protein was aliquoted, flash frozen in liquid nitrogen, and stored at −80° C. until use. […]

[7] = 100 mM MOPS, pH 7.25, 10 mM sodium phosphite, varied cofactor concentrations, n = 3

Molecule	cell growth of SHuffle strain harboring Gor Ortho with the NMN^+-reducing enzyme (E. coli SHuffle strain [1])	growth restoration, co-expression with NMNH-specific Gor Ortho (E. coli SHuffle strain [2])	Km [3] [µM]	NAD^+ kcat [3] [s⁻¹]	Km ([4]; enzyme could not be saturated, 100 mM MOPS, pH 7.25, 10 mM sodium phosphite) [µM]	increase in catalytic efficiency for NMN^+ compared to TS-PTDH (wild type enzyme) ([4]; vs TS-PTDH) [fold]	Km [5] [µM]	NADP^+ kcat [5] [s⁻¹]	Km [4, 7] [µM]	NMN^+ kcat [4, 7] [s⁻¹]	increased catalytic efficiency (kcat/Km) for NMN^+ compared to TS-PTDH A155N ([4]; vs parent enzyme TS-PTDH A155N) [fold]	activity / cycling with BNA^+ compared to wild type [6]	response of biotransformation efficiency to BNA^+ concentration ([6]; 0, 5, 10, or 20 mM BNA^+)	utilization of the BNA^+ pool relative to the wild type protein ([6]; 20 mM BNA^+ supplementation, TsOYE, 24 h)
wild type Bs GDH: wild type Bacillus subtilis glucose dehydrogenase, reduces NAD(P)^+ but not NMN^+ (protein, UniProt P12310 1-261, looked up) Glucose 1-dehydrogenase: MYPDLKGKVVAITGAASGLGKAMAIRFGKEQAKVVINYYSNKQDPNEVKEEVIKAGGEAVVVQGDVTKEEDVKNIVQTAIKEFGTLDIMINNAGLENPVPSHEMPLKDWDKVIGTNLTGAFLGSREAIKYFVENDIKGNVINMSSVHEVIPWPLFVHYAASKGGIKLMTETLALEYAPKGIRVNNIGPGAINTPINAEKFADPKQKADVESMIPMGYIGEPEEIAAVAAWLASKEASYVTGITLFADGGMTQYPSFQAGRG	did not support cell growth													
TS-PTDH A155N: Pseudomonas stutzeri phosphite dehydrogenase with A155N substitution (SEQ ID NO:3) (protein) MLPKLVITHRVHEEILQLLAPHCELITNQTDSTLTREEILRRCRDAQAMMAFMPDRVDADFLQACPELRVIGCALKGFDNFDVDACTARGVWLTFVPDLLTVPTAELAIGLAVGLGRHLRAADAFVRSGKFRGWQPRFYGTGLDNATVGFLGMGNIGLAMADRLQGWGATLQYHEAKALDTQTEQRLGLRQVACSELFASSDFILLALPLNADTLHLVNAELLALVRPGALLVNPCRGSVVDEAAVLAALERGQLGGYAADVFEMEDWARADRPQQIDPALLAHPNTLFTPHIGSAVRAVRLEIERCAAQNILQALAGERPINAVNRLPKANPAAD		restored growth at a low level	80 ± 10	1.46 ± 0.13	> 5000	~30	630 ± 70	0.88 ± 0.08						
LY-7: phosphite dehydrogenase variant with A155N, E175W, A176G, L208V (SEQ ID NO:5) (protein) MLPKLVITHRVHEEILQLLAPHCELITNQTDSTLTREEILRRCRDAQAMMAFMPDRVDADFLQACPELRVIGCALKGFDNFDVDACTARGVWLTFVPDLLTVPTAELAIGLAVGLGRHLRAADAFVRSGKFRGWQPRFYGTGLDNATVGFLGMGNIGLAMADRLQGWGATLQYHWGKALDTQTEQRLGLRQVACSELFASSDFILLAVPLNADTLHLVNAELLALVRPGALLVNPCRGSVVDEAAVLAALERGQLGGYAADVFEMEDWARADRPQQIDPALLAHPNTLFTPHIGSAVRAVRLEIERCAAQNILQALAGERPINAVNRLPKANPAAD			750 ± 30	0.71 ± 0.04			110 ± 10	0.56 ± 0.03	1400 ± 100	0.16 ± 0.01	~11	enhanced activity for BNA^+ reduction	cofactor dose-dependent response	improved utilization of the BNA^+ pool
